For 1 substance, OD 450 results are on record in patent US20240150495A1.

The target of assay [1] is human ανβ3 integrin (Chemicon) (human) (UniProt P06756). Nature of the assay: ELISA on coated human ανβ3 integrin (1 ug/ml), binder at 0.010 µg/ml; positive control. Background: ELISA stands for enzyme-linked immunosorbent assay.
Assay [2] shares this target. Nature of the assay: ELISA on coated human ανβ3 integrin (1 ug/ml), binder at 0.625 µg/ml; positive control.
Assay [3] shares this target. Nature of the assay: ELISA on coated human ανβ3 integrin (1 ug/ml), binder at 10 µg/ml; positive control.
For assay [4] the target is unchanged. Nature of the assay: ELISA on coated human ανβ3 integrin (1 ug/ml), binder at 0.039 µg/ml; positive control.
Assay [5] has the same target. Nature of the assay: ELISA on coated human ανβ3 integrin (1 ug/ml), binder at 0.156 µg/ml; positive control.
Assay [6] has the same target. Nature of the assay: ELISA on coated human ανβ3 integrin (1 ug/ml), binder at 2.500 µg/ml; positive control.
For assay [7] the target is unchanged. Briefly: ELISA on coated human ανβ3 integrin (1 ug/ml), binder at 0.002 µg/ml; positive control.

Sequence of human ανβ3 integrin (Chemicon) (human) (P06756 31-1048 limits assumed, chain 1 of 2): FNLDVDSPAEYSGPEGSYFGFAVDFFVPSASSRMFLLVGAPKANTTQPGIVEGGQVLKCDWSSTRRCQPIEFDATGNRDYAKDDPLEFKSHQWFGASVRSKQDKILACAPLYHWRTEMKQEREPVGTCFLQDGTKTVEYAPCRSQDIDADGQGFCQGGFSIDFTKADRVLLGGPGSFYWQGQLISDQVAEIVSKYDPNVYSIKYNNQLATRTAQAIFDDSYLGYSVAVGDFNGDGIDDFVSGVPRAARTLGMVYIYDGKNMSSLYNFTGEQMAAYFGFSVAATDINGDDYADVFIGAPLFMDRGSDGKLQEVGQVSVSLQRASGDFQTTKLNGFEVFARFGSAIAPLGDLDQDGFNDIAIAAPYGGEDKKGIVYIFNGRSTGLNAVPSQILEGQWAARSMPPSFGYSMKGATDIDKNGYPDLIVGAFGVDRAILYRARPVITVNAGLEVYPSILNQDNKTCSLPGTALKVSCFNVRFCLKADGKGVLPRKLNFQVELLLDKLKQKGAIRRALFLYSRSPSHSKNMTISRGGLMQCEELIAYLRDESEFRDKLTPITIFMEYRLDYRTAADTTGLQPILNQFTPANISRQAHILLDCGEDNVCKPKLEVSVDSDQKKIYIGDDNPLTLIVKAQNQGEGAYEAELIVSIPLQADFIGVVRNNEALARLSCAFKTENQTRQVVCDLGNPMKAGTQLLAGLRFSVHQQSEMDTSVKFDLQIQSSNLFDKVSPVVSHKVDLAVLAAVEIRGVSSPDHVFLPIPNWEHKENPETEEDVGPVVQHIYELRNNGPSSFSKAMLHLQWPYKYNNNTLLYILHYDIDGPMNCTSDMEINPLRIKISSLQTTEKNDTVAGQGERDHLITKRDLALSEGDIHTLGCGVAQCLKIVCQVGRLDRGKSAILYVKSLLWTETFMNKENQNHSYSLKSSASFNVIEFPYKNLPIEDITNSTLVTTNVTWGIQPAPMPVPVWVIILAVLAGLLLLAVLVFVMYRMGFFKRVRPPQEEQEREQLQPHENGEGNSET
Sequence of human ανβ3 integrin (Chemicon) (human) (P05106 27-788 limits assumed, chain 2 of 2, further chain): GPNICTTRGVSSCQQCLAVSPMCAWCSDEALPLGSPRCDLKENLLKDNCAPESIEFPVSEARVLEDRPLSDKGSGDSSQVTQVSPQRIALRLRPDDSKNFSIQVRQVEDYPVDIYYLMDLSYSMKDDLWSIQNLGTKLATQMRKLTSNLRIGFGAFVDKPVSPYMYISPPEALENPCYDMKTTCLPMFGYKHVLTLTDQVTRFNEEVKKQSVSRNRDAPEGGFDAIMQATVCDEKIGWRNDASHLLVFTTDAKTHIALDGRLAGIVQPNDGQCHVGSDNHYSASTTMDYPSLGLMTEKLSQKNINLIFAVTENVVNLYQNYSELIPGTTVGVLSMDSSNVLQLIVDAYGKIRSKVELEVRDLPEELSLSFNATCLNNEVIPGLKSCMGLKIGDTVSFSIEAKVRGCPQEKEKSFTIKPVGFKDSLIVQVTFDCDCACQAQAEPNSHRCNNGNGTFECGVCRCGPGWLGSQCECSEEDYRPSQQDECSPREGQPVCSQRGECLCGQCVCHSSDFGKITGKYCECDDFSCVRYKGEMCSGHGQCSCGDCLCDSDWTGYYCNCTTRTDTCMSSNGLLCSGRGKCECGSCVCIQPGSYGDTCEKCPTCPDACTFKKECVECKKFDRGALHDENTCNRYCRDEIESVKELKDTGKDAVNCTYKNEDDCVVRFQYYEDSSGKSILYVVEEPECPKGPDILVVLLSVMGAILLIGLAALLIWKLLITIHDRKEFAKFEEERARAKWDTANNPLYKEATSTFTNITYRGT

For “commercial mouse anti human ανβ3 integrin mAb LM609 (Chemicon) (antibody)”, the OD 450 stood at 0.157 OD 450 in assay [1]; 0.657 OD 450 in assay [2]; 0.647 OD 450 in assay [3]; 0.391 OD 450 in assay [4]; 0.626 OD 450 in assay [5]; 0.644 OD 450 in assay [6]. Further, the OD 450 in assay [7] amounted to 0.077 OD 450.
